Reference: paper doi:10.1101/2025.01.27.635082 (bioRxiv, 2025)

Molecular target: the molecule itself
Assay: SEC

B1: mouse phosphomannomutase 2 (Pmm2) (enzyme, UniProt Q9Z2M7 1-242, looked up)
chain: MATLCLFDMDGTLTAPRQKITEEMDGFLQKLRQKTKIGVVGGSDFEKLQEQLGNDVVEKYDYVFPENGLVAYKDGKLLCKQNIQGHLGEDVIQDLINYCLSYIANIKLPKKRGTFIEFRNGMLNVSPIGRSCSQEERIEFYELDKKEHIRQKFVADLRKEFAGKGLTFSIGGQISIDVFPEGWDKRYCLRHLEHAGYKTIYFFGDKTMPGGNDHEIFTDPRTVGYTVTAPEDTRRICEGLFP
stoichiometry N: 2

B2: human phosphomannomutase 2 (hPMM2) (enzyme)
chain: MAAPGPALCLFDVDGTLTAPRQKITKEMDDFLQKLRQKIKIGVVGGSDFEKVQEQLGNDVVEKYDYVFPENGLVAYKDGKLLCRQNIQSHLGEALIQDLINYCLSYIAKIKLPKKRGTFIEFRNGMLNVSPIGRSCSQEERIEFYELDKKENIRQKFVADLRKEFAGKGLTFSIGGQISFDVFPDGWDKRYCLRHVENDGYKTIYFFGDKTMPGGNDHEIFTDPRTMGYSVTAPEDTRRICELLFS
stoichiometry N: 2
